Test results taken from patent US20210261648A1 (published 2021).

T1: FcγRIIb (human, UniProt P31994 43-217)
T1 construct: extracellular domain; also called FcgRIIb; CD32B
T1 sequence (looked up): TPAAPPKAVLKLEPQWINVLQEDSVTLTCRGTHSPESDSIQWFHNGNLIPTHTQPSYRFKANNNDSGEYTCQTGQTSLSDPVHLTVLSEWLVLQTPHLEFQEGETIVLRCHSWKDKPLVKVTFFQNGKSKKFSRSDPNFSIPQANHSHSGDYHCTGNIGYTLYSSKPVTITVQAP

T2: FcγRIIa type R (human, UniProt P12318 34-217)
T2 chain: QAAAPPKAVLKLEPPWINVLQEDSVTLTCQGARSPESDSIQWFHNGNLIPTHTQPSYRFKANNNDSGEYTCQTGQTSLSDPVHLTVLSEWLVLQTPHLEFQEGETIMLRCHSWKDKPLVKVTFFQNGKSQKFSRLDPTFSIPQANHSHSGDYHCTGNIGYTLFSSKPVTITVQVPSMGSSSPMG


How the values were obtained:
FcγRIa = molecular target: T3, FcγRIa (human, UniProt P12314 16-292); assay: SPR (Biacore), captured antibody, soluble FcγR
T3 construct: Whole entry named; also called FcgRIa; CD64A

FcγRIIb [1] = molecular target: T1, FcγRIIb; assay: SPR (Biacore), captured antibody, soluble FcγR
FcγRIIa type R [2] = molecular target: T2, FcγRIIa type R; assay: SPR (Biacore), captured antibody, soluble FcγR
FcγRIIb [3] = molecular target: T1, FcγRIIb; assay: SPR (Biacore); parent = IL6R-B3/IL6R-L
FcγRIIa type R [4] = molecular target: T2, FcγRIIa type R; assay: SPR (Biacore); parent = IL6R-B3/IL6R-L

T3 sequence (P12314 16-292): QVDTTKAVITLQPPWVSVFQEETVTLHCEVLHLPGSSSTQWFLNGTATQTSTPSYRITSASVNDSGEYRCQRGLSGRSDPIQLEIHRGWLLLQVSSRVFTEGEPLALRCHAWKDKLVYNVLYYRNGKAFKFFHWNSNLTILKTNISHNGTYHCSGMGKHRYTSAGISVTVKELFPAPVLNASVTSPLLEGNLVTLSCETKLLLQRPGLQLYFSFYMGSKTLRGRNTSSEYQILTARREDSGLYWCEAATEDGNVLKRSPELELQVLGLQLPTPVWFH

Row | Kd (FcγRIa) | Kd (FcγRIIb [1]) | Kd (FcγRIIa type R [2]) | KD(IIb) of the parent polypeptide/KD(IIb) of the altered polypeptide (FcγRIIb [3]) | KD(IIaR) of the parent polypeptide/KD(IIaR) of the altered polypeptide (FcγRIIa type R [4]) | Binder
1 | 0.79 nM | 24 nM | 920 nM | 131 fold | 1.2 fold | IL6R-BP492/IL6R-L (antibody, human IgG1, kappa, Alterations in EU numbering, introduced into IL6R-B3) heavy: QVQLQESGPGLVKPSETLSLTCAVSGHSISHDHAWSWVRQPPGEGLEWIGFISYSGITNYNPSLQGRVTISRDNSKNTLYLQMNSLRAEDTAVYYCARSLARTTAMDYWGEGTLVTVSSASTKGPSVFPLAPSSKSTSGGTAALGCLVKDYFPEPVTVSWNSGALTSGVHTFPAVLQSSGLYSLSSVVTVPSSSLGTQTYICNVNHKPSNTKVDKKVEPKSCDKTHTCPPCPAPELLGGDSVFLFPPKPKDTLMISRTPEVTCVVIDVAEEDGEVKFNWYVDGVEVHNAKTKPREEQYNSTYRVVSVLTVLHQDWLNGKEYKCKVSNKALPAPIEKTISKAKGQPREPQVYTLPPSRDELTKNQVSLTCLVKGFYPSDIAVEWESNGQPENNYKTTPPVLDSDGSFFLYSKLTVDKSRWQQGNVFSCSVMHEALHNHYTQESLSLSP light: not shown
2 | 1.1 nM | 21 nM | 430 nM | 145 fold | 2.6 fold | IL6R-BP505/IL6R-L (antibody, human IgG1, kappa, Alterations in EU numbering, introduced into IL6R-B3) heavy: QVQLQESGPGLVKPSETLSLTCAVSGHSISHDHAWSWVRQPPGEGLEWIGFISYSGITNYNPSLQGRVTISRDNSKNTLYLQMNSLRAEDTAVYYCARSLARTTAMDYWGEGTLVTVSSASTKGPSVFPLAPSSKSTSGGTAALGCLVKDYFPEPVTVSWNSGALTSGVHTFPAVLQSSGLYSLSSVVTVPSSSLGTQTYICNVNHKPSNTKVDKKVEPKSCDKTHTCPPCPAPDLLGDDSVFLFPPKPKDTLMISRTPEVTCVVIDVAEEDGDVKFNWYVDGVEVHNAKTKPREEQYNSTYRVVSVLTVLHQDWLNGKEYKCKVSNKALPAPIEKTISKAKGQPREPQVYTLPPSRDELTKNQVSLTCLVKGFYPSDIAVEWESNGQPENNYKTTPPVLDSDGSFFLYSKLTVDKSRWQQGNVFSCSVMHEALHNHYTQESLSLSP light: not shown
3 | 8.3 nM | 9.7 nM | 490 nM | 321 fold | 2.2 fold | IL6R-BP495/IL6R-L (antibody, human IgG1, kappa, Alterations in EU numbering, introduced into IL6R-B3) heavy: QVQLQESGPGLVKPSETLSLTCAVSGHSISHDHAWSWVRQPPGEGLEWIGFISYSGITNYNPSLQGRVTISRDNSKNTLYLQMNSLRAEDTAVYYCARSLARTTAMDYWGEGTLVTVSSASTKGPSVFPLAPSSKSTSGGTAALGCLVKDYFPEPVTVSWNSGALTSGVHTFPAVLQSSGLYSLSSVVTVPSSSLGTQTYICNVNHKPSNTKVDKKVEPKSCDKTHTCPPCPAPELLGDDSVFLFPPKPKDTLMISRTPEVTCVVVDVGEEDGEVKFNWYVDGVEVHNAKTKPREEQDNSTYRVVSVLTVLHQDWLNGKEYKCKVSNKALPRPIEKTISKAKGQPREPQVYTLPPSRDELTKNQVSLTCLVKGFYPSDIAVEWESNGQPENNYKTTPPVLDSDGSFFLYSKLTVDKSRWQQGNVFSCSVMHEALHNHYTQESLSLSP light: not shown
4 | 2.1 nM | 25 nM | 630 nM | 123 fold | 1.7 fold | IL6R-BP501/IL6R-L (antibody, human IgG1, kappa, Alterations in EU numbering, introduced into IL6R-B3) heavy: QVQLQESGPGLVKPSETLSLTCAVSGHSISHDHAWSWVRQPPGEGLEWIGFISYSGITNYNPSLQGRVTISRDNSKNTLYLQMNSLRAEDTAVYYCARSLARTTAMDYWGEGTLVTVSSASTKGPSVFPLAPSSKSTSGGTAALGCLVKDYFPEPVTVSWNSGALTSGVHTFPAVLQSSGLYSLSSVVTVPSSSLGTQTYICNVNHKPSNTKVDKKVEPKSCDKTHTCPPCPAPELLGDDSVFLFPPKPKDTLMISRTPEVTCVVIDVAEEDGEVKFNWYVDGVEVHNAKTKPREEQYNSTYRVVSVLTVLHQDWLNGKEYKCKVSNKALPAPIEKTISKAKGQPREPQVYTLPPSRDELTKNQVSLTCLVKGFYPSDIAVEWESNGQPENNYKTTPPVLDSDGSFFLYSKLTVDKSRWQQGNVFSCSVMHEALHNHYTQESLSLSP light: not shown
5 | 2.3 nM | 24 nM | 720 nM | 128 fold | 1.5 fold | IL6R-BP500/IL6R-L (antibody, human IgG1, kappa, Alterations in EU numbering, introduced into IL6R-B3) heavy: QVQLQESGPGLVKPSETLSLTCAVSGHSISHDHAWSWVRQPPGEGLEWIGFISYSGITNYNPSLQGRVTISRDNSKNTLYLQMNSLRAEDTAVYYCARSLARTTAMDYWGEGTLVTVSSASTKGPSVFPLAPSSKSTSGGTAALGCLVKDYFPEPVTVSWNSGALTSGVHTFPAVLQSSGLYSLSSVVTVPSSSLGTQTYICNVNHKPSNTKVDKKVEPKSCDKTHTCPPCPAPELLGDDSVFLFPPKPKDTLMISRTPEVTCVVIDVAEEDGEVKFNWYVDGVEVHNAKTKPREEQDNSTYRVVSVLTVLHQDWLNGKEYKCKVSNKALPAPIEKTISKAKGQPREPQVYTLPPSRDELTKNQVSLTCLVKGFYPSDIAVEWESNGQPENNYKTTPPVLDSDGSFFLYSKLTVDKSRWQQGNVFSCSVMHEALHNHYTQESLSLSP light: not shown
6 | 1.4 nM | 21 nM | 540 nM | 149 fold | 2 fold | IL6R-BP508/IL6R-L (antibody, human IgG1, kappa, Alterations in EU numbering, introduced into IL6R-B3) heavy: QVQLQESGPGLVKPSETLSLTCAVSGHSISHDHAWSWVRQPPGEGLEWIGFISYSGITNYNPSLQGRVTISRDNSKNTLYLQMNSLRAEDTAVYYCARSLARTTAMDYWGEGTLVTVSSASTKGPSVFPLAPSSKSTSGGTAALGCLVKDYFPEPVTVSWNSGALTSGVHTFPAVLQSSGLYSLSSVVTVPSSSLGTQTYICNVNHKPSNTKVDKKVEPKSCDKTHTCPPCPAPDLLGDDSVFLFPPKPKDTLMISRTPEVTCVVIDVAEEDGPVKFNWYVDGVEVHNAKTKPREEQDNSTYRVVSVLTVLHQDWLNGKEYKCKVSNKALPAPIEKTISKAKGQPREPQVYTLPPSRDELTKNQVSLTCLVKGFYPSDIAVEWESNGQPENNYKTTPPVLDSDGSFFLYSKLTVDKSRWQQGNVFSCSVMHEALHNHYTQESLSLSP light: not shown
7 | 1.4 nM | 24 nM | 450 nM | 128 fold | 2.4 fold | IL6R-BP504/IL6R-L (antibody, human IgG1, kappa, Alterations in EU numbering, introduced into IL6R-B3) heavy: QVQLQESGPGLVKPSETLSLTCAVSGHSISHDHAWSWVRQPPGEGLEWIGFISYSGITNYNPSLQGRVTISRDNSKNTLYLQMNSLRAEDTAVYYCARSLARTTAMDYWGEGTLVTVSSASTKGPSVFPLAPSSKSTSGGTAALGCLVKDYFPEPVTVSWNSGALTSGVHTFPAVLQSSGLYSLSSVVTVPSSSLGTQTYICNVNHKPSNTKVDKKVEPKSCDKTHTCPPCPAPDLLGDDSVFLFPPKPKDTLMISRTPEVTCVVIDVAEEDGPVKFNWYVDGVEVHNAKTKPREEQYNSTYRVVSVLTVLHQDWLNGKEYKCKVSNKALPAPIEKTISKAKGQPREPQVYTLPPSRDELTKNQVSLTCLVKGFYPSDIAVEWESNGQPENNYKTTPPVLDSDGSFFLYSKLTVDKSRWQQGNVFSCSVMHEALHNHYTQESLSLSP light: not shown
8 | 0.82 nM | 21 nM | 1100 nM | 147 fold | 1 fold | IL6R-BP493/IL6R-L (antibody, human IgG1, kappa, Alterations in EU numbering, introduced into IL6R-B3) heavy: QVQLQESGPGLVKPSETLSLTCAVSGHSISHDHAWSWVRQPPGEGLEWIGFISYSGITNYNPSLQGRVTISRDNSKNTLYLQMNSLRAEDTAVYYCARSLARTTAMDYWGEGTLVTVSSASTKGPSVFPLAPSSKSTSGGTAALGCLVKDYFPEPVTVSWNSGALTSGVHTFPAVLQSSGLYSLSSVVTVPSSSLGTQTYICNVNHKPSNTKVDKKVEPKSCDKTHTCPPCPAPELLGGDSVFLFPPKPKDTLMISRTPEVTCVVIDVAEEDGEVKFNWYVDGVEVHNAKTKPREEQDNSTYRVVSVLTVLHQDWLNGKEYKCKVSNKALPAPIEKTISKAKGQPREPQVYTLPPSRDELTKNQVSLTCLVKGFYPSDIAVEWESNGQPENNYKTTPPVLDSDGSFFLYSKLTVDKSRWQQGNVFSCSVMHEALHNHYTQESLSLSP light: not shown
9 | 3.9 nM | 6.6 nM | 250 nM | 471 fold | 4.3 fold | IL6R-BP494/IL6R-L (antibody, human IgG1, kappa, Alterations in EU numbering, introduced into IL6R-B3) heavy: QVQLQESGPGLVKPSETLSLTCAVSGHSISHDHAWSWVRQPPGEGLEWIGFISYSGITNYNPSLQGRVTISRDNSKNTLYLQMNSLRAEDTAVYYCARSLARTTAMDYWGEGTLVTVSSASTKGPSVFPLAPSSKSTSGGTAALGCLVKDYFPEPVTVSWNSGALTSGVHTFPAVLQSSGLYSLSSVVTVPSSSLGTQTYICNVNHKPSNTKVDKKVEPKSCDKTHTCPPCPAPELLGDDSVFLFPPKPKDTLMISRTPEVTCVVVDVAEEDGEVKFNWYVDGVEVHNAKTKPREEQDNSTYRVVSVLTVLHQDWLNGKEYKCKVSNKALPRPIEKTISKAKGQPREPQVYTLPPSRDELTKNQVSLTCLVKGFYPSDIAVEWESNGQPENNYKTTPPVLDSDGSFFLYSKLTVDKSRWQQGNVFSCSVMHEALHNHYTQESLSLSP light: not shown
